Laboratory results published in the supplement of paper PMC10567573.

B1: ZNF263 (parent)
chain: QRTHTGEKPYKCPECGEIFAHSSN
B2: FAM189A2 (parent)
chain: GSEAAVIPLDLGCTQVTQDGDIPN

Variants of: B1
Assay: protein stability index of a GFP-peptide fusion (GPS, HEK-293T) (PSI 1-6); higher = more stable
Conditions: c terminus: a fixed tail appended
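Further: lentivirally expressed fusions sorted by FACS into six bins by GFP to DsRed ratio, PSI derived from sequencing read proportions per bin multiplied by bin number.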

| Variant | protein stability index |
| --- | --- |
| QRTHTGEKPYKCPGCGEIFAHSSN | 3.31 |
| QRTHTGEKPYKCPECGEIFGHSSN | 3.16 |
| QRTHTGEKPYKCPECGEIFAHSTN | 3.14 |
| QRTHTGEKPYKCPECGEIFAHSSR | 2.39 |
| QRTHTGEAPYKCPECGEIFAHSSN | 3.31 |
| QRTHTGEKPYKCCECGEIFAHSSN | 3.1 |
| QRTWTGEKPYKCPECGEIFAHSSN | 3.08 |
| QRTHTGEKPYKCPECGPIFAHSSN | 3.72 |
| QRTHTGEKPYKCPECREIFAHSSN | 3 |
| QRTHTGEQPYKCPECGEIFAHSSN | 3.38 |
| QRQHTGEKPYKCPECGEIFAHSSN | 2.86 |
| QYTHTGEKPYKCPECGEIFAHSSN | 3.02 |
| QRTHTGEKPYKCPECGEIFAHFSN | 2.8 |
| QRTHTGQKPYKCPECGEIFAHSSN | 3.16 |
| QRTHTGEKPYKCPECGENFAHSSN | 3.79 |
| QRTHTGEKPYKCPECGEIFAESSN | 3.21 |
| QRTHTEEKPYKCPECGEIFAHSSN | 3.71 |
| QRTHTGEKYYKCPECGEIFAHSSN | 2.99 |
| QRTHTGEKPYKCPEYGEIFAHSSN | 3.68 |
| QRTHTGEKPYKCPEVGEIFAHSSN | 4.42 |
| QRTHTNEKPYKCPECGEIFAHSSN | 2.85 |
| QRTHTGEKPYKCPECGEIFAHSPN | 2.72 |
| QRTHTGEKPYKCPEPGEIFAHSSN | 4.51 |
| QRTHTGEKPYKCPECGEMFAHSSN | 3.73 |

| Variant | protein stability index |
| --- | --- |
| QRTHTGEKPYKCPECGEIFACSSN | 3.5 |
| TRTHTGEKPYKCPECGEIFAHSSN | 2.82 |
| QRTHTGEKPYKCPCCGEIFAHSSN | 3.71 |
| QRTHTGEKPQKCPECGEIFAHSSN | 3.5 |
| QRTHTGEKPYKCPETGEIFAHSSN | 4.63 |
| QRTHTGEKPRKCPECGEIFAHSSN | 3.79 |
| QRTHTPEKPYKCPECGEIFAHSSN | 3.23 |
| QRTHTGEKPYKCPENGEIFAHSSN | 4.76 |
| QQTHTGEKPYKCPECGEIFAHSSN | 3.3 |
| QRTHTGEKPYKCPECGEIFAHSSG | 3.04 |
| QRTHTGEKPYKSPECGEIFAHSSN | 4.52 |
| QRFHTGEKPYKCPECGEIFAHSSN | 2.67 |
| QRTHTGEKPYKCPECGEEFAHSSN | 3.99 |
| QRTHDGEKPYKCPECGEIFAHSSN | 3.6 |
| QRTHTGEKPYKCHECGEIFAHSSN | 3.39 |
| QRTHTGEKPYKCPECGEIFAPSSN | 3.5 |
| QRTHTGEKPYKCPKCGEIFAHSSN | 3.75 |
| QRTHTGEKPYKCPEWGEIFAHSSN | 3.88 |
| QRTHTKEKPYKCPECGEIFAHSSN | 3.18 |
| QRTHTGEKPYKCPECGEIFAASSN | 2.95 |
| QRTHTGEKPYKCPECGEIFAHSSY | 2.96 |
| QRTHHGEKPYKCPECGEIFAHSSN | 3.75 |
| QRTHTTEKPYKCPECGEIFAHSSN | 3.34 |
| QRTHTGEKPYKCPESGEIFAHSSN | 4.29 |

| Variant | protein stability index |
| --- | --- |
| QRTHTGEKPYKCPECGEIKAHSSN | 4.08 |
| YRTHTGEKPYKCPECGEIFAHSSN | 2.57 |
| QRTHTGEKPYKCPEAGEIFAHSSN | 4.3 |
| RRTHTGEKPYKCPECGEIFAHSSN | 2.97 |
| QRTHTGEKPYKCPECGESFAHSSN | 2.53 |
| QRTHTGEKPYKCPECGEIFAHISN | 2.52 |
| QRTHTGEKPYKWPECGEIFAHSSN | 3.62 |
| QRTYTGEKPYKCPECGEIFAHSSN | 2.77 |
| QRTHTGEKPYKCPECLEIFAHSSN | 3.22 |
| QRTHTGWKPYKCPECGEIFAHSSN | 2.03 |
| QVTHTGEKPYKCPECGEIFAHSSN | 2.88 |
| QRTPTGEKPYKCPECGEIFAHSSN | 3.27 |
| QRTHTGEKPYKCPECGEIFAHSSK | 3.99 |
| QRTHTGEKPYKMPECGEIFAHSSN | 4.35 |
| QRTHTGEKPCKCPECGEIFAHSSN | 4.75 |
| QRIHTGEKPYKCPECGEIFAHSSN | 2.93 |
| QRTHTGEKPYKCPEQGEIFAHSSN | 4.48 |
| QRMHTGEKPYKCPECGEIFAHSSN | 3.43 |
| QRNHTGEKPYKCPECGEIFAHSSN | 3.79 |
| QRTHTGEKPYKCPECGEIFAQSSN | 3.43 |
| QRTITGEKPYKCPECGEIFAHSSN | 3.01 |
| QRTHTGEKPYKCPEIGEIFAHSSN | 4.04 |
| QRTHVGEKPYKCPECGEIFAHSSN | 3.06 |
| QRTHTGEKPYKCPECGEIFAMSSN | 3.19 |

| Variant | protein stability index |
| --- | --- |
| QRTHTGEKPYNCPECGEIFAHSSN | 3.52 |
| QRTHTGEKPYKCPECGERFAHSSN | 3 |
| QRYHTGEKPYKCPECGEIFAHSSN | 2.58 |
| QRTHTGEKPYKCPECGEIFAHHSN | 3.87 |
| QRTHTGEKPYKCPHCGEIFAHSSN | 3.82 |
| QRPHTGEKPYKCPECGEIFAHSSN | 3.37 |
| QRTHTGEKPYKCPECGEIFAHYSN | 2.71 |
| QATHTGEKPYKCPECGEIFAHSSN | 3.34 |
| QRTHTGEKPYKCPECCEIFAHSSN | 2.84 |
| QRTKTGEKPYKCPECGEIFAHSSN | 3.77 |
| QRTHTGEKDYKCPECGEIFAHSSN | 3.68 |
| QRAHTGEKPYKCPECGEIFAHSSN | 3.55 |
| QRTHTGEKPDKCPECGEIFAHSSN | 4.31 |
| QRTHTGEKVYKCPECGEIFAHSSN | 3.5 |
| QRTHTGNKPYKCPECGEIFAHSSN | 2.72 |
| QRTHTGEKPYKCPECGEYFAHSSN | 3.48 |
| QRTHTGEKPYKCPECGEIFCHSSN | 3.75 |
| QRTHTGEKPYKCPECGEIFAHSNN | 3.34 |
| QRTDTGEKPYKCPECGEIFAHSSN | 3.98 |
| QRVHTGEKPYKCPECGEIFAHSSN | 3.04 |
| QRTHTGEKLYKCPECGEIFAHSSN | 3.65 |
| QRTHTGEKPYKCPDCGEIFAHSSN | 3.1 |
| QRTHTGEKPEKCPECGEIFAHSSN | 4.04 |
| QRTHTGEKPYKIPECGEIFAHSSN | 3.6 |

| Variant | protein stability index |
| --- | --- |
| QPTHTGEKPYKCPECGEIFAHSSN | 3.77 |
| QRTHTGEKPYKCPECGEIFAHSSV | 2.61 |
| QRTHTGEKPYKCPECGEIFAHDSN | 3.64 |
| QRTHTGEKPYKCPECGEIFAHSSC | 5.06 |
| QRTHTGEKPYKCPECGEIFAHSKN | 3.79 |
| QRTHTGEKPYKCPECYEIFAHSSN | 3.18 |
| HRTHTGEKPYKCPECGEIFAHSSN | 3.6 |
| QRTHTGEKPYKCPECGEIFWHSSN | 3.07 |
| QRTHTGEKPYKCPECGEIFIHSSN | 3.46 |
| QRTHTGEKPYKCPECGEIFAHSSS | 3.16 |
| QRTHTGEKPYECPECGEIFAHSSN | 3.99 |
| QRTHTGEKPYKEPECGEIFAHSSN | 4.53 |
| FRTHTGEKPYKCPECGEIFAHSSN | 2.74 |
| QRTHTGEKPYICPECGEIFAHSSN | 3.1 |
| QRTHTGEKPYKCPECGEPFAHSSN | 3.43 |
| QRTLTGEKPYKCPECGEIFAHSSN | 3.4 |
| QFTHTGEKPYKCPECGEIFAHSSN | 2.82 |
| QRTHTGEKPYKCPECGEIFYHSSN | 3.49 |
| QRTHTGEKPYKCPECGEIFAHSSP | 2.61 |
| QRTHTGEKPYKCPEHGEIFAHSSN | 4.09 |
| QRTHTGRKPYKCPECGEIFAHSSN | 2.33 |
| QRTHTGEKPYKCPECEEIFAHSSN | 4 |
| QRTHTGEKPYKCPECGEIFSHSSN | 3.83 |
| QRTHTFEKPYKCPECGEIFAHSSN | 2.79 |

| Variant | protein stability index |
| --- | --- |
| QRTHTGEKPYKTPECGEIFAHSSN | 4.57 |
| QRTHMGEKPYKCPECGEIFAHSSN | 3.09 |
| QLTHTGEKPYKCPECGEIFAHSSN | 3.6 |
| PRTHTGEKPYKCPECGEIFAHSSN | 3.7 |
| QRTTTGEKPYKCPECGEIFAHSSN | 3.02 |
| QRTHTGEFPYKCPECGEIFAHSSN | 2.89 |
| QRTHTGERPYKCPECGEIFAHSSN | 3.74 |
| QRTHTGEKPYKCPECPEIFAHSSN | 4.06 |
| QRTHTGEKPYKCPECGHIFAHSSN | 4.49 |
| QRTHTGEKPYKCIECGEIFAHSSN | 3.57 |
| QRTHTGEKPYKCRECGEIFAHSSN | 2.94 |
| QRTHTGEKPYKCPEKGEIFAHSSN | 4.75 |
| QRTHIGEKPYKCPECGEIFAHSSN | 3.03 |
| QRTHTGEKPYKCPERGEIFAHSSN | 4.29 |
| QRTHTGEKPYKCPECGEIFEHSSN | 3.76 |
| QRTHNGEKPYKCPECGEIFAHSSN | 3.57 |
| QRTHTGEKPYKCPECGEIFANSSN | 2.86 |
| QRTHTGEKPYKCPECGEIFAHSSW | 2.85 |
| QRTHTGEKPYACPECGEIFAHSSN | 3.56 |
| QRTHTGEKPYKCPECGEIFAHSQN | 3.31 |
| QRTHTGEKPYKCPECGEIFKHSSN | 3.25 |
| VRTHTGEKPYKCPECGEIFAHSSN | 2.85 |
| QRTHTGEKPYKCPECGEIFAFSSN | 2.74 |
| QRTHTGEKQYKCPECGEIFAHSSN | 3.25 |

| Variant | protein stability index |
| --- | --- |
| KRTHTGEKPYKCPECGEIFAHSSN | 2.72 |
| QRTHTGEKPPKCPECGEIFAHSSN | 4.31 |
| QRTHTGEKSYKCPECGEIFAHSSN | 3.59 |
| QRTHTGEKPYKCPECGEIFAHWSN | 3.31 |
| QRTHTGEKPYKYPECGEIFAHSSN | 4.3 |
| QRTHTGEKPYKCPECGEIHAHSSN | 4.82 |
| QRTHTGEKPYKCPECGEQFAHSSN | 3.91 |
| QRTHTGEEPYKCPECGEIFAHSSN | 3.82 |
| QRTNTGEKPYKCPECGEIFAHSSN | 3.28 |
| QRTHTGEKPYYCPECGEIFAHSSN | 3.03 |
| QRTHTGEKPFKCPECGEIFAHSSN | 3.25 |
| QRTHTGEKPYSCPECGEIFAHSSN | 3.83 |
| QRTHTGEKPYKCPECGEIFAHSSH | 3.49 |
| QRTHTGEKPYKCPECNEIFAHSSN | 3.09 |
| QRTHTGEKPYKCPECGEIFRHSSN | 2.93 |
| QRTHTGEKPYKCPECGTIFAHSSN | 4.77 |
| LRTHTGEKPYKCPECGEIFAHSSN | 2.76 |
| QRTHTGEKPYKCPECGEAFAHSSN | 3.48 |
| QRTHTGLKPYKCPECGEIFAHSSN | 2.49 |
| QRTHTGEKPYKCPECGRIFAHSSN | 3.38 |
| QRTHTGEKPYKCPECAEIFAHSSN | 3.54 |
| QRTHTGEKPYKCPECGEIFAGSSN | 3.22 |
| QRTHTGEKPYKCPECGAIFAHSSN | 4.67 |

Variants of: B2
Assay: as above
Conditions: c terminus: a fixed tail appended

| Variant | protein stability index |
| --- | --- |
| GSEAAVIPLDLGCTQVTQDGDIEN | 5.55 |
| GSRAAVIPLDLGCTQVTQDGDIPN | 5.08 |
| GSEAVVIPLDLGCTQVTQDGDIPN | 5.08 |
| GSEAAVIWLDLGCTQVTQDGDIPN | 2 |
| GSEAAVDPLDLGCTQVTQDGDIPN | 5.93 |
| GSEAAVIPLDLGCRQVTQDGDIPN | 4.41 |
| GSEAAVIPMDLGCTQVTQDGDIPN | 5.6 |
| GSEAAVIPLDLGCTQVTQDSDIPN | 5.32 |
| GSEAAPIPLDLGCTQVTQDGDIPN | 5.76 |
| GSEVAVIPLDLGCTQVTQDGDIPN | 4.97 |
| GSEAAVIPLDLGCTQYTQDGDIPN | 5.05 |
| GSEAAVIPLWLGCTQVTQDGDIPN | 4.02 |
| GSAAAVIPLDLGCTQVTQDGDIPN | 5.2 |
| GSEAAVIPVDLGCTQVTQDGDIPN | 5.42 |
| GSEAAVIPLDLGCMQVTQDGDIPN | 4.86 |
| MSEAAVIPLDLGCTQVTQDGDIPN | 5.33 |
| GSEAAVIPTDLGCTQVTQDGDIPN | 5.5 |
| GSEAAVIPLDLGCTKVTQDGDIPN | 5.16 |
| GSEAANIPLDLGCTQVTQDGDIPN | 5.44 |
| GSEAAVIPLDLGCTQVTQDGDDPN | 5.64 |
| GSEAAVIPLDLGCTMVTQDGDIPN | 5.27 |
